Data from patent US20080057028A1.

Assays:
[1] = molecular target: neuropilin-2 on mouse oligodendrocyte precursor cells (OPCs) (mouse) (UniProt O35375); assay: cell-based or functional assay
[2] = molecular target: VEGFR-3 on mouse oligodendrocyte precursor cells (OPCs) (mouse) (UniProt P35917); assay: cell-based or functional assay
Sequence of UniProt P35917 (P35917 25-1363): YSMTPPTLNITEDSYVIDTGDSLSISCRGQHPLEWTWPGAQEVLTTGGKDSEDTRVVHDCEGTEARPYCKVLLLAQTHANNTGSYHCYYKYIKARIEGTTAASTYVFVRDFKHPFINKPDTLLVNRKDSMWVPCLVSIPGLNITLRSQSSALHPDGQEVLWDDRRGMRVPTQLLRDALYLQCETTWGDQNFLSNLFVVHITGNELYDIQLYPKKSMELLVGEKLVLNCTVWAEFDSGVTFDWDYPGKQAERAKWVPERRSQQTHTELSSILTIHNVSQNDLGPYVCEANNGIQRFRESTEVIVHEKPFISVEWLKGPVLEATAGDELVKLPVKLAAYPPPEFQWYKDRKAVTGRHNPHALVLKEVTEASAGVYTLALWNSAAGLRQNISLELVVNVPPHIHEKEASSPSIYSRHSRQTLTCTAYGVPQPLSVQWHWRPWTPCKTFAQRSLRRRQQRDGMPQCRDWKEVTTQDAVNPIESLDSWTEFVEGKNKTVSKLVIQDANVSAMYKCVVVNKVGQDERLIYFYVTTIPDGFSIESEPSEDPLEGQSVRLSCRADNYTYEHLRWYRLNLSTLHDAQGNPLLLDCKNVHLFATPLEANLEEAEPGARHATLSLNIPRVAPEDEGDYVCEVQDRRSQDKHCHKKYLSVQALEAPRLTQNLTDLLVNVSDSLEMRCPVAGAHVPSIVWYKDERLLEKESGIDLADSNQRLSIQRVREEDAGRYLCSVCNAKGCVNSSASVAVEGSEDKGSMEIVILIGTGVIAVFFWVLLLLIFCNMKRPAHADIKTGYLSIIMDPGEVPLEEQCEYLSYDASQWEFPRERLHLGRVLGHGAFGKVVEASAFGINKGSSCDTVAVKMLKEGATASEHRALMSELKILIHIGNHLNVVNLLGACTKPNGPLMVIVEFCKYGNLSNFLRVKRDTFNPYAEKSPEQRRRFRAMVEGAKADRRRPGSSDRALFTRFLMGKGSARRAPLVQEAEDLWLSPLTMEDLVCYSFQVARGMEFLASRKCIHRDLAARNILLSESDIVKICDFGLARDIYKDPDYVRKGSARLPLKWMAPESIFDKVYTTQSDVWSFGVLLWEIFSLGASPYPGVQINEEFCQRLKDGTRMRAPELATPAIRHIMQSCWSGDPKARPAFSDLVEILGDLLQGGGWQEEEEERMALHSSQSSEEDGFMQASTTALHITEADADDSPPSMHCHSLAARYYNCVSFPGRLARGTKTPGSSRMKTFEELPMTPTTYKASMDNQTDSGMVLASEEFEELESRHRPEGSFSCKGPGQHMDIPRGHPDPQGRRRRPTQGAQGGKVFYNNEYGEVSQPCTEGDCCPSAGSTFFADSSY

Sequence of UniProt O35375 (O35375 21-931): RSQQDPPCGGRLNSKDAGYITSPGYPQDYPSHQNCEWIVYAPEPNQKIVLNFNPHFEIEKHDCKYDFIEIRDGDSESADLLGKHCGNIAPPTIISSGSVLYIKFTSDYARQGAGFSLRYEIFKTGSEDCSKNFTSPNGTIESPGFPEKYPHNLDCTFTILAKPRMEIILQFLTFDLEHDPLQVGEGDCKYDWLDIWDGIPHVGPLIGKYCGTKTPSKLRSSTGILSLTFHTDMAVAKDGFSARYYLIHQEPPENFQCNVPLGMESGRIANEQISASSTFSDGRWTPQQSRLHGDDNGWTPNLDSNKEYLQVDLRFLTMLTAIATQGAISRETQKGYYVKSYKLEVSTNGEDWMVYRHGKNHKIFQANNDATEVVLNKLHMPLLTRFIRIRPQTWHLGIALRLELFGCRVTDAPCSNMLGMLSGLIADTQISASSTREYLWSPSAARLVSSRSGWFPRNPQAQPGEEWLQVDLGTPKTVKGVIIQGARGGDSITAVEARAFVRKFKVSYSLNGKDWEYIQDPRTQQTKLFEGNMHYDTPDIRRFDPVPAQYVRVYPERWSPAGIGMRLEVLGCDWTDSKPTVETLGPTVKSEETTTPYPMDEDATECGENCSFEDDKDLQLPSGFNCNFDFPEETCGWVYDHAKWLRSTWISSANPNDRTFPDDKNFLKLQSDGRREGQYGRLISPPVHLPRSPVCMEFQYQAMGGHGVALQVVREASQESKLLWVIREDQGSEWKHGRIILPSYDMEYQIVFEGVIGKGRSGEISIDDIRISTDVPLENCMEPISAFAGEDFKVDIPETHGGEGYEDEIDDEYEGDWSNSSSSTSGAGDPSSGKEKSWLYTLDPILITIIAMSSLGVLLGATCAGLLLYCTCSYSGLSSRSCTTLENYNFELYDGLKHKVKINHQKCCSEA

| BrdU incorporation of A2B5^+ OPCs [1] | proliferation of OPCs (BrdU^+/A2B5^+ cells) [2] | migration of Olig2^+ OPCs through the filter (transwell) [2] | Substance |
| --- | --- | --- | --- |
| 2 fold |  |  | VEGF-C (supernatant of COS cells secreting VEGF-C) (ligand) |
|  | 50% |  | human VEGF-C156S (R&D Systems) (from UniProt P49767 103-227) (ligand) |
|  | 2 fold | > 2 fold | recombinant rat VEGF-C (Reliatech) (from UniProt O35757 99-223) (ligand) |
